Experimental data taken from paper PMC9674577.

What was measured:
[1] = target: T1, FinO45-186 (Escherichia coli (F plasmid)?, UniProt P29367 45-186); assay: FP; […]; ITC: 25 mM HEPES pH 7.3, 150 mM NaCl, 10% glycerol, 1 mM TCEP, 25 C; conditions: protein: recombinant; tags: GST removed by 3C protease; label: 5' FAM; hairpin, 5-nt 3' tail
T1 sequence: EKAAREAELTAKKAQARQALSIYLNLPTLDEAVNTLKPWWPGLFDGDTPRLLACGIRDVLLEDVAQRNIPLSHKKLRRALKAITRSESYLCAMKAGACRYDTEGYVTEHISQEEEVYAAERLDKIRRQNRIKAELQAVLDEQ

[2] = target: RocC24-126 (Legionella pneumophila Paris, UniProt A0A3A6VMJ3 24-126); assay: as above; conditions: protein: recombinant; tags: GST removed by 3C protease; label: 5' FAM; hairpin, 5-nt 3' tail
[3] = target: T2, RocC14-126 (Legionella pneumophila Paris, UniProt A0A3A6VMJ3 14-126); assay: ITC; little if any binding; […]; ITC: 25 mM HEPES pH 7.3, 150 mM NaCl, 10% glycerol, 1 mM TCEP, 25 C; conditions: protein: recombinant; tags: GST removed by 3C protease; hairpin, 5-nt 3' tail
[4] = target: T2, RocC14-126; assay: ITC; 1:1; […]; ITC: 25 mM HEPES pH 7.3, 150 mM NaCl, 10% glycerol, 1 mM TCEP, 25 C; conditions: protein: recombinant; tags: GST removed by 3C protease
[5] = target: RocC1-126 (Legionella pneumophila Paris, UniProt A0A3A6VMJ3 1-126); assay: EMSA; […]; ITC: 25 mM HEPES pH 7.3, 150 mM NaCl, 10% glycerol, 1 mM TCEP, 25 C; conditions: protein: recombinant; tags: GST removed by 3C protease; label: 5' 32P; hairpin, 5-nt 3' tail
[6] = target: T2, RocC14-126; assay: EMSA; similar to 1-126; […]; ITC: 25 mM HEPES pH 7.3, 150 mM NaCl, 10% glycerol, 1 mM TCEP, 25 C; conditions: protein: recombinant; tags: GST removed by 3C protease; label: 5' 32P; hairpin, 5-nt 3' tail

B1: FAM-RocRSL3 (5-nt tail) (structured_RNA)
RNA: UGGGUCAAUUGGCGACACACUGAUUGGCCCUUUCU
In the case of B1, the binding result [1] is reported as “binds” and the binding signal [2] is reported as ~3 fold weaker than RocC1-126.

B2: RocRP (RocRSL3 3'-phosphate) (structured_RNA)
RNA: UGGGUCAAUUGGCGACACACUGAUUGGCCCUUUCU
modifications: 3'-phosphate
B2: no binding [3].

B3: 10-nt single-stranded RNA (ssRNA)
RNA: GGCCCUUUCU
In the case of B3, the binding signal [4] is reported as ~19 fold weaker than RocR9bp-tet.

B4: RocRSL3 (IVT) (structured_RNA)
RNA: GGGUGGGUCAAUUGGCGACACACUGAUUGGCCCUUUCU
B4: binds [5]; binds [6].
